Where two headings read alike, the source gives them in different places.
How the values were obtained:
[1] = target: Factor VIII A1/A3C1C2 dimer A1/A3C1C2 (Homo sapiens) (UniProt P00451); assay: FXa generation assay; conditions: cited from earlier work
[2] = target: Factor VIII A1/A3C1C2 dimer A1/A3C1C2 (Homo sapiens) (UniProt P00451); conditions: cited from earlier work
[3] = target: Factor VIII A3C1C2 subunit A3C1C2 (Homo sapiens) (UniProt P00451); conditions: cited from earlier work
[4] = target: T1, Factor VIIIa A1/A3C1C2 dimer A1/A3C1C2 (Homo sapiens, UniProt P00451); assay: FVIIIa reconstitution assay
T1 chain 1: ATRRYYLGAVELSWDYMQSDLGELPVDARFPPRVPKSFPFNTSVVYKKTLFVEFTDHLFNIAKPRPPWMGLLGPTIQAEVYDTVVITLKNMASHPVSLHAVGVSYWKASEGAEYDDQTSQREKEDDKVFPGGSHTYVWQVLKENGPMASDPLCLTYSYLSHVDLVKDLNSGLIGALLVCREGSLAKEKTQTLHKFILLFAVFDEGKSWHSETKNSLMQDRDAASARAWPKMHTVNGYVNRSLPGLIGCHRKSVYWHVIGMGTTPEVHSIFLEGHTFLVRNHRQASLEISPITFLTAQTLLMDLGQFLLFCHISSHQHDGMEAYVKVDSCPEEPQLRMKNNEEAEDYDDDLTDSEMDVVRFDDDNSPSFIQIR
T1 chain 2: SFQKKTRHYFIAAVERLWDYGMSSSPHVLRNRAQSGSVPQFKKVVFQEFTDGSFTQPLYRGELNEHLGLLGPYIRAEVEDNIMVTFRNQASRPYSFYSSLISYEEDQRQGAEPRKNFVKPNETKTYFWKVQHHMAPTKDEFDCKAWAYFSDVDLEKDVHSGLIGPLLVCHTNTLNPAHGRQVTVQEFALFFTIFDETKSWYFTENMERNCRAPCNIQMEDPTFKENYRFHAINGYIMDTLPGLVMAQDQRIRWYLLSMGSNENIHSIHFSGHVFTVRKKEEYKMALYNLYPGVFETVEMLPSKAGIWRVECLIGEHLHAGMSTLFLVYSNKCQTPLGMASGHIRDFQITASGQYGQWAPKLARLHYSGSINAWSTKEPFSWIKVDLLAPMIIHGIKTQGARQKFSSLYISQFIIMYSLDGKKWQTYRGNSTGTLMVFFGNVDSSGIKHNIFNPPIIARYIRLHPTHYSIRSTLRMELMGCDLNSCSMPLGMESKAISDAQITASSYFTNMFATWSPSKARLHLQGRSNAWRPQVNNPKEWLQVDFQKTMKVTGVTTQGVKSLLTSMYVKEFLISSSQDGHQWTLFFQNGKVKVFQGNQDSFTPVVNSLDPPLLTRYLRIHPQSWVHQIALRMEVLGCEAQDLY

Molecule: Factor VIII A2 subunit A2 (from UniProt P00451)
- Kd [1]: 30 nM
- Kd [2]: 260 nM

Molecule: Factor VIII A1 subunit A1 (from UniProt P00451)
- Kd [3]: 60 nM

B1: Factor VIIIa A2 subunit A2 (protein)
chain: SVAKKHPKTWVHYIAAEEEDWDYAPLVLAPDDRSYKSQYLNNGPQRIGRKYKKVRFMAYTDETFKTREAIQHESGILGPLLYGEVGDTLLIIFKNQASRPYNIYPHGITDVRPLYSRRLPKGVKHLKDFPILPGEIFKYKWTVTVEDGPTKSDPRCLTRYYSSFVNMERDLASGLIGPLLICYKESVDQRGNQIMSDKRNVILFSVFDENRSWYLTENIQRFLPNPAGVQLEDPEFQASNIMHSINGYVFDSLQLSVCLHEVAYWYILSIGAQTDFLSVFFSGYTFKHKMVYEDTLTLFPFSGETVFMSMENPGLWILGCHNSDFRNRGMTALLKVSSCDKNTGDYYEDSYEDISAYLLSKNNAIEPR
- Kd [4]: 56.3 nM

B2: Factor VIIIa A2 subunit A2 (protein)
chain: SVAKKHPKTWVHYIAAEEEDWDYAPLVLAPDDRSYKSQYLNNGPQRIGRKYKKVRFMAYTDETFKTREAIQHESGILGPLLYGEVGDTLLIIFKNQASRPYNIYPHGITDVRPLYSRRLPKGVKHLKVFPILPGEIFKYKWTVTVEDGPTKSDPRCLTRYYSSFVNMERDLASGLIGPLLICYKESVDQRGNQIMSDKRNVILFSVFDENRSWYLTENIQRFLPNPAGVQLEDPEFQASNIMHSINGYVFDSLQLSVCLHEVAYWYILSIGAQTDFLSVFFSGYTFKHKMVYEDTLTLFPFSGETVFMSMENPGLWILGCHNSDFRNRGMTALLKVSSCDKNTGDYYEDSYEDISAYLLSKNNAIEPR
- Kd [4]: 10 nM
